Assay results published in article PMC12784346, “Paratope mapping of tilvestamab, an anti-AXL function-blocking antibody, using high-throughput bacterial expression of secreted scFv-osmY fusion proteins” (Bioscience Reports, 2025).
Positions count from the first letter of the chain named.

B1: parental tilvestamab scFv-osmY fusion protein (scFv, V domains shown)
VH: EVQLVESGGGLVQPGGSLRLSCAASGYSFTDFYINWVRQAPGKGLEWVARIFPGGDNTYYNEKFKGRFTLSADTSKSTAYLQMNSLRAEDTAVYYCARRGLYYAMDYWGQGTLVTVSS
VL: DIQMTQSPSSLSASVGDRVTITCRSSQSLVHSNGIPYLHWYQQKPGKAPKLLIYRVSNRFSGVPSRFSGSGSGTDFTLTISSLQPEDFATYYCSQGTHVPPTFGQGTKVEIK
notes: VH of tilvestamab (BGB149); numbers count on: the scFv-osmY fusion protein; linker between VH and VL, adapted from the vector pOPE101; VL of tilvestamab (BGB149); About 52 kDa; vector pET-22b(+); also called parental scFv-osmY; parental scFv; source: E. coli T7 expression strain, secreted, culture supernatant used directly; not shown: His6, C-terminal, kept
B2: tilvestamab scFv-osmY I35A (scFv, V domains shown)
VH: B1 VH with I34A
VL: B1 VL
notes: VH of tilvestamab, as the VH of m1; numbers count on: the scFv-osmY fusion protein; linker; VL of tilvestamab, as the VL of m1; source: E. coli T7 expression strain, secreted, culture supernatant used directly; not shown: His6, C-terminal, kept
B3: tilvestamab scFv-osmY F53A (scFv, V domains shown)
VH: B1 VH with F52A
VL: B1 VL
notes: as for B2
B4: tilvestamab scFv-osmY T31A (scFv, V domains shown)
VH: B1 VH with T30A
VL: B1 VL
notes: as for B2
B5: tilvestamab scFv-osmY G101A (scFv, V domains shown)
VH: B1 VH with G100A
VL: B1 VL
notes: as for B2
B6: tilvestamab scFv-osmY L102A (scFv, V domains shown)
VH: B1 VH with L101A
VL: B1 VL
notes: as for B2
B7: tilvestamab scFv-osmY L102S (scFv, V domains shown)
VH: B1 VH with L101S
VL: B1 VL
notes: as for B2
B8: tilvestamab scFv-osmY L102Y (scFv, V domains shown)
VH: B1 VH with L101Y
VL: B1 VL
notes: as for B2
B9: tilvestamab scFv-osmY L102T (scFv, V domains shown)
VH: B1 VH with L101T
VL: B1 VL
notes: as for B2
B10: tilvestamab scFv-osmY D32A (scFv, V domains shown)
VH: B1 VH with D31A
VL: B1 VL
notes: as for B2
B11: tilvestamab scFv-osmY Y103A (scFv, V domains shown)
VH: B1 VH with Y102A
VL: B1 VL
notes: as for B2
B12: tilvestamab scFv-osmY Y103S (scFv, V domains shown)
VH: B1 VH with Y102S
VL: B1 VL
notes: as for B2
B13: tilvestamab scFv-osmY M106A (scFv, V domains shown)
VH: B1 VH with M105A
VL: B1 VL
notes: as for B2
B14: tilvestamab scFv-osmY Y108A (scFv, V domains shown)
VH: B1 VH with Y107A
VL: B1 VL
notes: as for B2
B15: tilvestamab scFv-osmY F33A (scFv, V domains shown)
VH: B1 VH with F32A
VL: B1 VL
notes: as for B2
B16: tilvestamab scFv-osmY Y191A (scFv, V domains shown)
VH: B1 VH
VL: B1 VL with Y54A
notes: VH of tilvestamab, as the VH of m1; linker; VL of tilvestamab, as the VL of m1; numbers count on: the scFv-osmY fusion protein; source: E. coli T7 expression strain, secreted, culture supernatant used directly; not shown: His6, C-terminal, kept
B17: tilvestamab scFv-osmY N195A (scFv, V domains shown)
VH: B1 VH
VL: B1 VL with N58A
notes: as for B16
B18: tilvestamab scFv-osmY F33Y (scFv, V domains shown)
VH: B1 VH with F32Y
VL: B1 VL
notes: as for B2
B19: tilvestamab scFv-osmY G233A (scFv, V domains shown)
VH: B1 VH
VL: B1 VL with G96A
notes: as for B16
B20: tilvestamab scFv-osmY G233S (scFv, V domains shown)
VH: B1 VH
VL: B1 VL with G96S
notes: as for B16
B21: tilvestamab scFv-osmY F33S (scFv, V domains shown)
VH: B1 VH with F32S
VL: B1 VL
notes: as for B2
B22: tilvestamab scFv-osmY P238A (scFv, V domains shown)
VH: B1 VH
VL: B1 VL with P101A
notes: as for B16
B23: tilvestamab scFv-osmY F33T (scFv, V domains shown)
VH: B1 VH with F32T
VL: B1 VL
notes: as for B2

Biological target: T1, AXL Ig1 domain fused to human Fc (Homo sapiens, UniProt P30530)
T1 construct: AXL receptor tyrosine kinase, human, Ig1 domain of the extracellular domain; Construct limits and production are in the Supplementary Information; also called AXL Ig1-Fc; AXL-Ig1-Fc
Assay: BLI; Octet RED96; His-tagged scFv-osmY captured on Ni-NTA tips from undiluted bacterial supernatant (600 s); AXL Ig1 domain Fc 5.6 ug/ml in kinetic buffer (0.02% Tween 20, 0.05% sodium azide, 0.1% BSA in PBS) as analyte; rat Axl-Fc as control; traces scored by eye (normal, fast, very fast, weak, weak fast, none)
Details: one partner purified

Binder	binding result
B1	binds
B2	binds
B3	binds
B4	binds
B5	binds
B6	binds
B7	binds
B8	binds
B9	binds
B10	binds
B11	binds
B12	binds
B13	binds
B14	binds
B15	binds
B16	binds
B17	binds
B18	binds
B19	binds
B20	binds
B21	binds
B22	binds
B23	binds
